From the Human Domainome abundance scans (Beltran et al. 2025)
± gives the uncertainty stated by the source.

B1: RAS guanyl-releasing protein 1, residues 539 to 593; numbered along this chain, O95267 (parent)
chain: GFPHNFQETTYLKPTFCDNCAGFLWGVIKQGYRCKDCGMNCHKQCKDLVVFECKK

Variants of: B1
Assay: abundance fitness (aPCA) (normalised: wild type 0, dead -1); higher = more abundant; growth selection in yeast, the domain comes from the species named
Settings: Homo sapiens
Variant GFPHNFQETTYLKCTFCDNCAGFLWGVIKQGYRCKDCGMNCHKQCKDLVVFECKK [P14C] has an abundance fitness of -0.235 ± 0.049. GFPHNFQETTYLKDTFCDNCAGFLWGVIKQGYRCKDCGMNCHKQCKDLVVFECKK [P14D] showed an abundance fitness of -0.38 ± 0.12. Variant GFPHNFQETTYLKETFCDNCAGFLWGVIKQGYRCKDCGMNCHKQCKDLVVFECKK [P14E] has an abundance fitness of -0.886 ± 0.18. Work on GFPHNFQETTYLKFTFCDNCAGFLWGVIKQGYRCKDCGMNCHKQCKDLVVFECKK [P14F] yielded an abundance fitness of -0.364 ± 0.18. In the case of GFPHNFQETTYLKGTFCDNCAGFLWGVIKQGYRCKDCGMNCHKQCKDLVVFECKK [P14G], the abundance fitness is reported as -0.449 ± 0.07. With GFPHNFQETTYLKHTFCDNCAGFLWGVIKQGYRCKDCGMNCHKQCKDLVVFECKK [P14H] the abundance fitness was -0.687 ± 0.12. Work on GFPHNFQETTYLKITFCDNCAGFLWGVIKQGYRCKDCGMNCHKQCKDLVVFECKK [P14I] yielded an abundance fitness of -0.647 ± 0.24. Work on GFPHNFQETTYLKKTFCDNCAGFLWGVIKQGYRCKDCGMNCHKQCKDLVVFECKK [P14K] yielded an abundance fitness of -0.672 ± 0.17. For GFPHNFQETTYLKLTFCDNCAGFLWGVIKQGYRCKDCGMNCHKQCKDLVVFECKK [P14L], the abundance fitness was -0.296 ± 0.075. For GFPHNFQETTYLKNTFCDNCAGFLWGVIKQGYRCKDCGMNCHKQCKDLVVFECKK [P14N], the abundance fitness was -0.931 ± 0.35. GFPHNFQETTYLKQTFCDNCAGFLWGVIKQGYRCKDCGMNCHKQCKDLVVFECKK [P14Q] gave an abundance fitness of -1 ± 0.31. With GFPHNFQETTYLKRTFCDNCAGFLWGVIKQGYRCKDCGMNCHKQCKDLVVFECKK [P14R] the abundance fitness was -0.739 ± 0.065. GFPHNFQETTYLKTTFCDNCAGFLWGVIKQGYRCKDCGMNCHKQCKDLVVFECKK [P14T] gave an abundance fitness of -0.767 ± 0.15. GFPHNFQETTYLKVTFCDNCAGFLWGVIKQGYRCKDCGMNCHKQCKDLVVFECKK [P14V] showed an abundance fitness of -0.384 ± 0.082. Work on GFPHNFQETTYLKWTFCDNCAGFLWGVIKQGYRCKDCGMNCHKQCKDLVVFECKK [P14W] yielded an abundance fitness of -0.108 ± 0.076. Work on GFPHNFQETTYLKYTFCDNCAGFLWGVIKQGYRCKDCGMNCHKQCKDLVVFECKK [P14Y] yielded an abundance fitness of -0.397 ± 0.071. Variant GFPHNFQETTYLKPAFCDNCAGFLWGVIKQGYRCKDCGMNCHKQCKDLVVFECKK [T15A] has an abundance fitness of 0.105 ± 0.092. For GFPHNFQETTYLKPCFCDNCAGFLWGVIKQGYRCKDCGMNCHKQCKDLVVFECKK [T15C], the abundance fitness was -0.327 ± 0.2. GFPHNFQETTYLKPDFCDNCAGFLWGVIKQGYRCKDCGMNCHKQCKDLVVFECKK [T15D] gave an abundance fitness of -0.622 ± 0.16. For GFPHNFQETTYLKPEFCDNCAGFLWGVIKQGYRCKDCGMNCHKQCKDLVVFECKK [T15E], the abundance fitness was -0.401 ± 0.062. Work on GFPHNFQETTYLKPFFCDNCAGFLWGVIKQGYRCKDCGMNCHKQCKDLVVFECKK [T15F] yielded an abundance fitness of -0.434 ± 0.15. With GFPHNFQETTYLKPGFCDNCAGFLWGVIKQGYRCKDCGMNCHKQCKDLVVFECKK [T15G] the abundance fitness was -0.607 ± 0.088. Work on GFPHNFQETTYLKPHFCDNCAGFLWGVIKQGYRCKDCGMNCHKQCKDLVVFECKK [T15H] yielded an abundance fitness of -0.185 ± 0.12. Work on GFPHNFQETTYLKPIFCDNCAGFLWGVIKQGYRCKDCGMNCHKQCKDLVVFECKK [T15I] yielded an abundance fitness of -0.162 ± 0.069. With GFPHNFQETTYLKPKFCDNCAGFLWGVIKQGYRCKDCGMNCHKQCKDLVVFECKK [T15K] the abundance fitness was -0.391 ± 0.14. Variant GFPHNFQETTYLKPLFCDNCAGFLWGVIKQGYRCKDCGMNCHKQCKDLVVFECKK [T15L] has an abundance fitness of -0.236 ± 0.083. Work on GFPHNFQETTYLKPMFCDNCAGFLWGVIKQGYRCKDCGMNCHKQCKDLVVFECKK [T15M] yielded an abundance fitness of -0.146 ± 0.13. Work on GFPHNFQETTYLKPNFCDNCAGFLWGVIKQGYRCKDCGMNCHKQCKDLVVFECKK [T15N] yielded an abundance fitness of -0.336 ± 0.13. Variant GFPHNFQETTYLKPPFCDNCAGFLWGVIKQGYRCKDCGMNCHKQCKDLVVFECKK [T15P] has an abundance fitness of -0.476 ± 0.071. Variant GFPHNFQETTYLKPQFCDNCAGFLWGVIKQGYRCKDCGMNCHKQCKDLVVFECKK [T15Q] has an abundance fitness of -0.426 ± 0.25. GFPHNFQETTYLKPRFCDNCAGFLWGVIKQGYRCKDCGMNCHKQCKDLVVFECKK [T15R] showed an abundance fitness of -0.29 ± 0.076. With GFPHNFQETTYLKPSFCDNCAGFLWGVIKQGYRCKDCGMNCHKQCKDLVVFECKK [T15S] the abundance fitness was -0.181 ± 0.062. GFPHNFQETTYLKPVFCDNCAGFLWGVIKQGYRCKDCGMNCHKQCKDLVVFECKK [T15V] gave an abundance fitness of -0.425 ± 0.063. GFPHNFQETTYLKPWFCDNCAGFLWGVIKQGYRCKDCGMNCHKQCKDLVVFECKK [T15W] gave an abundance fitness of -0.444 ± 0.12. Work on GFPHNFQETTYLKPTACDNCAGFLWGVIKQGYRCKDCGMNCHKQCKDLVVFECKK [F16A] yielded an abundance fitness of -0.085 ± 0.08. GFPHNFQETTYLKPTCCDNCAGFLWGVIKQGYRCKDCGMNCHKQCKDLVVFECKK [F16C] showed an abundance fitness of 0.038 ± 0.11. GFPHNFQETTYLKPTDCDNCAGFLWGVIKQGYRCKDCGMNCHKQCKDLVVFECKK [F16D] showed an abundance fitness of -0.371 ± 0.1. Work on GFPHNFQETTYLKPTECDNCAGFLWGVIKQGYRCKDCGMNCHKQCKDLVVFECKK [F16E] yielded an abundance fitness of -0.408 ± 0.11. With GFPHNFQETTYLKPTGCDNCAGFLWGVIKQGYRCKDCGMNCHKQCKDLVVFECKK [F16G] the abundance fitness was -0.333 ± 0.068. GFPHNFQETTYLKPTHCDNCAGFLWGVIKQGYRCKDCGMNCHKQCKDLVVFECKK [F16H] gave an abundance fitness of -0.148 ± 0.12. Work on GFPHNFQETTYLKPTKCDNCAGFLWGVIKQGYRCKDCGMNCHKQCKDLVVFECKK [F16K] yielded an abundance fitness of -0.205 ± 0.12. For GFPHNFQETTYLKPTLCDNCAGFLWGVIKQGYRCKDCGMNCHKQCKDLVVFECKK [F16L], the abundance fitness was -0.487 ± 0.11. GFPHNFQETTYLKPTNCDNCAGFLWGVIKQGYRCKDCGMNCHKQCKDLVVFECKK [F16N] showed an abundance fitness of -0.175 ± 0.096. GFPHNFQETTYLKPTPCDNCAGFLWGVIKQGYRCKDCGMNCHKQCKDLVVFECKK [F16P] gave an abundance fitness of -0.334 ± 0.11. Work on GFPHNFQETTYLKPTQCDNCAGFLWGVIKQGYRCKDCGMNCHKQCKDLVVFECKK [F16Q] yielded an abundance fitness of -0.243 ± 0.14. Work on GFPHNFQETTYLKPTSCDNCAGFLWGVIKQGYRCKDCGMNCHKQCKDLVVFECKK [F16S] yielded an abundance fitness of -0.285 ± 0.094. Variant GFPHNFQETTYLKPTTCDNCAGFLWGVIKQGYRCKDCGMNCHKQCKDLVVFECKK [F16T] has an abundance fitness of -0.33 ± 0.11. GFPHNFQETTYLKPTVCDNCAGFLWGVIKQGYRCKDCGMNCHKQCKDLVVFECKK [F16V] gave an abundance fitness of -0.385 ± 0.064.
